Reference: article PMC2581427
Changes are numbered by the printed parent chain.

How the values were obtained:
GST-Arx (286-430) [1] = target: T1, GST-Arx (286-430) (UniProt O35085 286-430); assay: EMSA
GST-Arx (286-430) [2] = target: T1, GST-Arx (286-430); assay: competition
GST-Arx (286-430) [3] = target: T1, GST-Arx (286-430); assay: EMSA; remark: listed apart in the source

T1 sequence (O35085 286-430): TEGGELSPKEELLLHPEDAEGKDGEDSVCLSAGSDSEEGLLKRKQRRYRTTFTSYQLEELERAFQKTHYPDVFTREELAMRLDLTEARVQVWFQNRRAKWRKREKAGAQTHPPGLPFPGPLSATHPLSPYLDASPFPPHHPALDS

B1: Shox2 probe (dsDNA)
DNA 1: GCAAAATCCACGCTTAATTAAATTAATTAGGGA
DNA 2: GTCCCTAATTAATTTAATTAAGCGTGGATTTTG
B1: binds (GST-Arx (286-430) [1]).

B2: Lmo1 probe (dsDNA)
DNA 1: GTAATGAATTGATTTAATTAACAGGGGAGTCTGA
DNA 2: GTCAGACTCCCCTGTTAATTAAATCAATTCATTA
B2: binds (GST-Arx (286-430) [1]).

B3: Lmo1mut1 (dsDNA)
DNA 1: B2 DNA 1 with A16C, A17C
DNA 2: B2 DNA 2 with T19G, T20G
B3: no binding (GST-Arx (286-430) [2]).

B4: Lmo1mut2 (dsDNA)
DNA 1: B2 DNA 1 with T9C, T10C
DNA 2: B2 DNA 2 with A26G, A27G
B4: binds (GST-Arx (286-430) [2]).

B5: Ebf3 probe (dsDNA)
DNA 1: GCGATTTTCCCGATTAATTAAAATATTAACGCA
DNA 2: GTGCGTTAATATTTTAATTAATCGGGAAAATCG
B5: binds (GST-Arx (286-430) [3]).
